{"source": "paper PMC12412624", "about": "“Engineered Cas12j‐8 is a Versatile Platform for Multiplexed Genome Modulation in Mammalian Cells”", "key": {"[1]": {"tested_on": "T1, dCas12j-8 E258R+D313R+D527R E258R;D313R;D527R;D369A;E567A;D658A (bacteriophage (metagenome))", "T1 sequence": "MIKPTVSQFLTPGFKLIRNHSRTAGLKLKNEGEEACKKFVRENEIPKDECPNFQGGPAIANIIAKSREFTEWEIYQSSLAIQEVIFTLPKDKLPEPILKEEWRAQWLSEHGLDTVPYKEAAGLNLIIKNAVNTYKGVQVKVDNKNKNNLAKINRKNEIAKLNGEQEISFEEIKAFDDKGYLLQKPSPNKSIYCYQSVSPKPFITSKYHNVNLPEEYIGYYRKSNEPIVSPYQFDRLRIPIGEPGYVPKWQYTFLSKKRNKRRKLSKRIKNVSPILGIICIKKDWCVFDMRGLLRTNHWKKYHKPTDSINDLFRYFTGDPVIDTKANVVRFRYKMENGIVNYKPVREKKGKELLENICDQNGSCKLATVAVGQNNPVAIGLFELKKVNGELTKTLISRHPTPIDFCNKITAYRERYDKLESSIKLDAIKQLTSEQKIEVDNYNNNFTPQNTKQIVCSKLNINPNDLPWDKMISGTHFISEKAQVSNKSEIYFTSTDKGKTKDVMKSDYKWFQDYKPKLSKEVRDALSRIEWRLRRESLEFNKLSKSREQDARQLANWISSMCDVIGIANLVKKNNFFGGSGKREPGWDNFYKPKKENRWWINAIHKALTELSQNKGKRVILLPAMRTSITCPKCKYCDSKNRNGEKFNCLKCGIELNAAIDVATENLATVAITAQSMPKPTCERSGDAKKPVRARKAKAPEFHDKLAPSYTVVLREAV", "settings": "HEK293T cells; panel 1e (compare within a panel only); scale: mean GFP / mean GFP of wild type, printed, no background subtraction"}, "[2]": {"tested_on": "T2, dCas12j-8 E535R E535R;D369A;E567A;D658A (bacteriophage (metagenome))", "T2 sequence": "T1 sequence with R258E, R313D, R527D, E535R", "settings": "HEK293T cells; panel 1c (compare within a panel only); scale: mean GFP / mean GFP of wild type, printed, no background subtraction"}, "[3]": {"tested_on": "T3, dCas12j-8 E31R E31R;D369A;E567A;D658A (bacteriophage (metagenome))", "T3 sequence": "T1 sequence with E31R, R258E, R313D, R527D", "settings": "HEK293T cells; panel 1c (compare within a panel only); scale: mean GFP / mean GFP of wild type, printed, no background subtraction"}, "[4]": {"tested_on": "T4, dCas12j-8 E419R E419R;D369A;E567A;D658A (bacteriophage (metagenome))", "T4 sequence": "T1 sequence with R258E, R313D, E419R, R527D", "settings": "HEK293T cells; panel 1c (compare within a panel only); scale: mean GFP / mean GFP of wild type, printed, no background subtraction"}}, "note": "Where a chain is given by its changes, count along the chain named.", "data": [{"sequence": "CUUUCAAGACUAAUAGAUUGCUCCUUACGAGGAGACACUCCCUAUCAGUGAUAGAG / TTNACTCCCTATCAGTGATAGAG / CTCTATCACTGATAGGGAGTNAA [TetO]", "values": [{"measurement": "binding signal", "setting": "[1]", "value": 5.09}, {"measurement": "binding signal", "setting": "[2]", "value": 0.495}, {"measurement": "binding signal", "setting": "[3]", "value": 0.82}, {"measurement": "binding signal", "setting": "[4]", "value": 0.894}]}]}
